B1: library; numbered along this chain (parent)
chain: MAAAAAAAAEQQSSNGPVKKSMREKAVERRSVNKEHNSNFKAGYIPIDEDRLHKTGLRGRKGNLAICVIILLFILAVINLIITLVIWAVIRIGPNGCDSMEFHESGLLRFKQVSDMGVIHPLYKSTVGGRRNENLVITGNNQPIVFQQGTTKLSVENNKTSITSDIGMQFFDPRTQNILFSTDYETHEFHLPSGVKSLNVQKASTERITSNATSDLNIKVDGRAIVRGNEGVFIMGKTIEFHMGGNMELKAENSIILNGSVMVSTTRLPSSSSGDQLGSGDWVRYKLCMCADGTLFKVQVTSQNMGCQISDNPCGNTH

Variants of: B1
Test: SGCB cell-surface expression functional score (HA stain, bin4 vs bin1, normalised to synonymous) (log10 ratio); higher = more cell-surface SGCB (functional)
In short: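 Sorting and sequencing yield the functional score, defined as the log ratio of a variant's highest-bin frequency to its lowest-bin frequency, with the median taken over codons and replicate transductions. The libraries, codon-saturation sets of HA-tagged, YFP-fused human beta-sarcoglycan, went into HEK293 cells stably carrying alpha-, gamma- and delta-sarcoglycan by duplicate lentiviral transduction at MOI <0.1. Cells were stained on ice with Alexa Fluor 647 anti-HA, fixed and split into four 5% intensity bins, and synonymous variants were scaled per section to mean 0, SD 0.5.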

Variant	SGCB cell-surface expression functional score (log10)
MAAAAAAAAEQQSSNGPVKKSMREKAVERRSVNKEHNSNFKAGYIPIDEDRLHKTGLRGRKGNLAICVIILLFILAVINLIITLVIWAVIRIGPNGCDSMEFHESGLLRFKQVSDMGVIHPLYKSTVGGRRNENLVITGNNQPIVFQQGTTKLSVENNKTSITSDIGMQFFDPRTQNILFSTDYETHEFHLPSGVKSLNVQKASKERITSNATSDLNIKVDGRAIVRGNEGVFIMGKTIEFHMGGNMELKAENSIILNGSVMVSTTRLPSSSSGDQLGSGDWVRYKLCMCADGTLFKVQVTSQNMGCQISDNPCGNTH [T205K]	-2.61
MAAAAAAAAEQQSSNGPVKKSMREKAVERRSVNKEHNSNFKAGYIPIDEDRLHKTGLCGRKGNLAICVIILLFILAVINLIITLVIWAVIRIGPNGCDSMEFHESGLLRFKQVSDMGVIHPLYKSTVGGRRNENLVITGNNQPIVFQQGTTKLSVENNKTSITSDIGMQFFDPRTQNILFSTDYETHEFHLPSGVKSLNVQKASTERITSNATSDLNIKVDGRAIVRGNEGVFIMGKTIEFHMGGNMELKAENSIILNGSVMVSTTRLPSSSSGDQLGSGDWVRYKLCMCADGTLFKVQVTSQNMGCQISDNPCGNTH [R58C]	-0.55
MAAAAAAAAEQQSSNGPVKKSAREKAVERRSVNKEHNSNFKAGYIPIDEDRLHKTGLRGRKGNLAICVIILLFILAVINLIITLVIWAVIRIGPNGCDSMEFHESGLLRFKQVSDMGVIHPLYKSTVGGRRNENLVITGNNQPIVFQQGTTKLSVENNKTSITSDIGMQFFDPRTQNILFSTDYETHEFHLPSGVKSLNVQKASTERITSNATSDLNIKVDGRAIVRGNEGVFIMGKTIEFHMGGNMELKAENSIILNGSVMVSTTRLPSSSSGDQLGSGDWVRYKLCMCADGTLFKVQVTSQNMGCQISDNPCGNTH [M22A]	0.08
MAAAAAAAAEQQSSNGPVKKSMREKAVERRSVNKEHNSNFKAGYIPIDEDRLHKTGLRGRKGNLAICVIILLFILAVINLIITLVIWAVIRIGPNGCDSMEFHESGLLRFKQVSDMGVIHPLYKSTVGGRRNENLVITGNNQPIVFQQGTTKLSVENNKTSITSDIGMQFFDPRTQNILFSTDYETHEFHLPSGVKSLNVQKASTERITSNATSDLNIKHDGRAIVRGNEGVFIMGKTIEFHMGGNMELKAENSIILNGSVMVSTTRLPSSSSGDQLGSGDWVRYKLCMCADGTLFKVQVTSQNMGCQISDNPCGNTH [V220H]	0.43
MAAAAAAAAEQQSSNGPVKKSMREKAVERRSVNKEHNSNFKAGYIPIDEDRLHKTGLRGRKGNLAICVIILLFILAVINLIITLVIWAVIRIGPNGCDSMRFHESGLLRFKQVSDMGVIHPLYKSTVGGRRNENLVITGNNQPIVFQQGTTKLSVENNKTSITSDIGMQFFDPRTQNILFSTDYETHEFHLPSGVKSLNVQKASTERITSNATSDLNIKVDGRAIVRGNEGVFIMGKTIEFHMGGNMELKAENSIILNGSVMVSTTRLPSSSSGDQLGSGDWVRYKLCMCADGTLFKVQVTSQNMGCQISDNPCGNTH [E101R]	-0.59
MAAAAAAAAEQQSSNGPVKKSMREKAVERRSVNKEHNSNFKAGYIPIDEDRLHKTGLRGRKGNLAICVIILLFILAVINLIITLVIWAVIRIGPNGCDSMEFHESGLLRFKQVSDMGVIHPLYKSTVGGRRNENLVITGNNQPIVFQQGTTKLSVENNKTSITSDIGMQFFDPRTQNILFSTDYETHEFHLPSGVKSLNVQKASTERITSNATSDLNIKVDGRAIVRGNEGVFIMGKTIEFHMGGNMELKAENSIILNGSVMVSTTRLPSSSSGDQLGSGDWVRYKLCMCALGTLFKVQVTSQNMGCQISDNPCGNTH [D292L]	0.07
MAAAAAAAAEQQSSNGPVKKSMREKAVERRSVNKEHNSNFKAGYIPIDEDRLHKTGLRGRKGNLAICVIILLFILAVINLIITLVIWAVIRIGPNGCDSMEFHESGLLRFKQVSDMGVIHPLYKSTVGGRRNENLVITGNNQPIVFQQGTTKLSVENNKTSITSDIGMQFFDPRTQNILFSTDCETHEFHLPSGVKSLNVQKASTERITSNATSDLNIKVDGRAIVRGNEGVFIMGKTIEFHMGGNMELKAENSIILNGSVMVSTTRLPSSSSGDQLGSGDWVRYKLCMCADGTLFKVQVTSQNMGCQISDNPCGNTH [Y184C]	-0.8
MAAAAAAAAEQQSSNGPVKKSMREKAVERRSVNKEHNSNFKAGYIPIDEDRLHKTGLRGRKGNLAICVIILLFILAVINLIITLVIWAVIRIGPYGCDSMEFHESGLLRFKQVSDMGVIHPLYKSTVGGRRNENLVITGNNQPIVFQQGTTKLSVENNKTSITSDIGMQFFDPRTQNILFSTDYETHEFHLPSGVKSLNVQKASTERITSNATSDLNIKVDGRAIVRGNEGVFIMGKTIEFHMGGNMELKAENSIILNGSVMVSTTRLPSSSSGDQLGSGDWVRYKLCMCADGTLFKVQVTSQNMGCQISDNPCGNTH [N95Y]	0.15
MAAAAAAAAEQQSSNGPVKKSMREKAVERRSVNKEHNSNFKAGYIPIDEDRLHKTGLRGRKGNLAICVIILLFILAVINLIITLVIWAVIRIGPNGCDSMEFHESGLLRFKQVSDMGVIHPLYKSTVGGRRNENLVITGNNQPIVFQQGTTKLSVENNKTSITSDIGMQFFDPRTTNILFSTDYETHEFHLPSGVKSLNVQKASTERITSNATSDLNIKVDGRAIVRGNEGVFIMGKTIEFHMGGNMELKAENSIILNGSVMVSTTRLPSSSSGDQLGSGDWVRYKLCMCADGTLFKVQVTSQNMGCQISDNPCGNTH [Q176T]	-0.34
MAAAAAAAAEQQSSNGPVKKSMREKAVERRSVNKEHNSNFKAGYIPIDEDRLHKTGLRGRKGNLAICVIILLFILAVINLIITLVIWAVIRIGPNGCDSMEFHESGLLRFKQVSDMGVIQPLYKSTVGGRRNENLVITGNNQPIVFQQGTTKLSVENNKTSITSDIGMQFFDPRTQNILFSTDYETHEFHLPSGVKSLNVQKASTERITSNATSDLNIKVDGRAIVRGNEGVFIMGKTIEFHMGGNMELKAENSIILNGSVMVSTTRLPSSSSGDQLGSGDWVRYKLCMCADGTLFKVQVTSQNMGCQISDNPCGNTH [H120Q]	-0.03
MAAAAAAAAEQQSSNGPVKKSMREKAVERRSVNKEHNSNFKAGYIPIDEDRLHKTGLRGRKGNLAICVIILLFILAVINLIITLVIWAVIRIGPNGCDSMEFHESGLLRFKQVSDMGVIHPLYKSTVGGRDNENLVITGNNQPIVFQQGTTKLSVENNKTSITSDIGMQFFDPRTQNILFSTDYETHEFHLPSGVKSLNVQKASTERITSNATSDLNIKVDGRAIVRGNEGVFIMGKTIEFHMGGNMELKAENSIILNGSVMVSTTRLPSSSSGDQLGSGDWVRYKLCMCADGTLFKVQVTSQNMGCQISDNPCGNTH [R131D]	0.14
MAAAAAAAAEQQSSNGPVKKSMREKAVERRSVNKEHNSNFKAGYIPIDEDRLHKTGLRGRKGNLAICVIILLFILAVINLIITLVIWAVIRIGPNGCDSMEFHESGLLRFKQVSDMGVIHPLYKSTVGGRRNENLVITGNNQPIVFQQGTTKLSVENNKTSITSDIGMQFFDPRTQNILFSTDYETHEFHLPSGVKSLNVQKASTERITSNATSDHNIKVDGRAIVRGNEGVFIMGKTIEFHMGGNMELKAENSIILNGSVMVSTTRLPSSSSGDQLGSGDWVRYKLCMCADGTLFKVQVTSQNMGCQISDNPCGNTH [L216H]	-2.1
MAAAAAAAAENQSSNGPVKKSMREKAVERRSVNKEHNSNFKAGYIPIDEDRLHKTGLRGRKGNLAICVIILLFILAVINLIITLVIWAVIRIGPNGCDSMEFHESGLLRFKQVSDMGVIHPLYKSTVGGRRNENLVITGNNQPIVFQQGTTKLSVENNKTSITSDIGMQFFDPRTQNILFSTDYETHEFHLPSGVKSLNVQKASTERITSNATSDLNIKVDGRAIVRGNEGVFIMGKTIEFHMGGNMELKAENSIILNGSVMVSTTRLPSSSSGDQLGSGDWVRYKLCMCADGTLFKVQVTSQNMGCQISDNPCGNTH [Q11N]	0.3
MAAAAAAAAEQQSSNGPVKKSMREKAVERRSVNKEHNSNFKAGYIPIDEDRLHKTGLRGRKGNLAICVIILLFILAVINLIITLVIWAVIRIGPNGCDSMEFHESGLLRFKQVSDMGVIHPLYKSTVGGRRNENLVITGNNQPIVFQQGTTKLSVENNKTSITSDIGMQFFDPRTQNILFSTDYETHEFHLPSGVKSLNVQKASTERITSNATSDLNIKVDGRAIVRGNEGVFIMGKTIEFHMGGNMELKAENSIILNGSVMVSTTRLPSSSSGDQLMSGDWVRYKLCMCADGTLFKVQVTSQNMGCQISDNPCGNTH [G278M]	0.18
MAAAAAAAAEQQSSNGPVKKSMREKAVERRSVNKEHNSNFKAGYIPIDEDRLHKTGLRGRKGNLAICVIILLFILAVINLIITLVIWAVIRIGPNGCDSMEFHESGLLRFKQVSDMGVIHPLYKSTVGGRRNENLVITGNNQPIVFQQGTTKLSVENNKTSITSDIGMQFFDPRTQNILFSTDYETHEFHLPSGEKSLNVQKASTERITSNATSDLNIKVDGRAIVRGNEGVFIMGKTIEFHMGGNMELKAENSIILNGSVMVSTTRLPSSSSGDQLGSGDWVRYKLCMCADGTLFKVQVTSQNMGCQISDNPCGNTH [V195E]	-0.23
MAAAAAAAAEQQSSNGPVKKSMREKAVERRSVNKEHNSNFKAGYIPIDEDRLHKTGLRGRKGNLAICVIILLFILAVINLIITLVIWAVIRIGPNGCDSMEFHESGLLRFKQVSDMGVIHPLYKSTVGGRRNENLVITGNNQPIVFQQGTTKLSVENNKTSITSDIGMQFFDPRTQNILFSTDYETHEFHLPSGVKSLNVQKASTERITSNATSDLNIKVDGRAIVRGNEGVFIMGKTIEFHMGGNMELKAENSIILNGSVMVFTTRLPSSSSGDQLGSGDWVRYKLCMCADGTLFKVQVTSQNMGCQISDNPCGNTH [S264F]	0.58
MAAAAAAAAEQQSSNGNVKKSMREKAVERRSVNKEHNSNFKAGYIPIDEDRLHKTGLRGRKGNLAICVIILLFILAVINLIITLVIWAVIRIGPNGCDSMEFHESGLLRFKQVSDMGVIHPLYKSTVGGRRNENLVITGNNQPIVFQQGTTKLSVENNKTSITSDIGMQFFDPRTQNILFSTDYETHEFHLPSGVKSLNVQKASTERITSNATSDLNIKVDGRAIVRGNEGVFIMGKTIEFHMGGNMELKAENSIILNGSVMVSTTRLPSSSSGDQLGSGDWVRYKLCMCADGTLFKVQVTSQNMGCQISDNPCGNTH [P17N]	0.1
MAAAAAAAAEQQSSNGPVKKSMREKAVERRSVNKEHNSNFKAGYIPIDEDRLHKTGLRGRKGNLAICVIILLFILAVINLIITLVIWAVIRIGPNGCDSMEFHESGLLRFKQVSDMGVIHPLYKSTVGGRRNENLVITGNNQPIVFQQGTTKLSVENNKTSITSDIGMQFFDPRTQNILFSTDYETHEFHLPSGVKSLNVQKASTERITSNATSDLNIKVDGRAIVRGNEGVFIMGKTIEFHMGGNMELKAENSIILNGSVMVSTTRLPSSSSGDQLGSGDWVRYKLCMCADGTLFKVQVTSQNMGCQISDNPTGNTH [C314T]	-0.78
MAAAAAAAAEQQSSNGPVKKSMREKAVERRSVNKEHNSNFKAGYIPIDEDRLHKTGLRGRKGNLAICVIILLFILAVINLIITLVIWAVIRIGPNGCDSMEFHESGLLRFKQVSDMGVIHPLYKSTVGGRRNENLVITGNNQPIVFQQGTTKLSVENNKTSITSDIGMQFFDPRTQNILFSTDYETHEFHLPSGVKSLNVQKASTERITSNATSDLNIKVDGRAIVRGNEGVFIMGKTIEFHMGGNMELKAENSIILNGSVMVSTTRLPSSSSGDQLVSGDWVRYKLCMCADGTLFKVQVTSQNMGCQISDNPCGNTH [G278V]	0.32

Reference: the supplement of paper PMC10266784
